One molecule from patent publication US20220348651A1 (Novartis, published 2022) can be followed below.

Values joined by “and” are separate entries in the source; they are usually repeats but may differ in a detail not shown here. Identical values can stand only once.

The target of assay [1] is T1, Human ENTPD1 (NP_001767) expressed on NIH/3T3 cells (human, UniProt P49961 1-510).
T1 construct: also called NIH/3T3-ENTPD1; CD39
T1 sequence: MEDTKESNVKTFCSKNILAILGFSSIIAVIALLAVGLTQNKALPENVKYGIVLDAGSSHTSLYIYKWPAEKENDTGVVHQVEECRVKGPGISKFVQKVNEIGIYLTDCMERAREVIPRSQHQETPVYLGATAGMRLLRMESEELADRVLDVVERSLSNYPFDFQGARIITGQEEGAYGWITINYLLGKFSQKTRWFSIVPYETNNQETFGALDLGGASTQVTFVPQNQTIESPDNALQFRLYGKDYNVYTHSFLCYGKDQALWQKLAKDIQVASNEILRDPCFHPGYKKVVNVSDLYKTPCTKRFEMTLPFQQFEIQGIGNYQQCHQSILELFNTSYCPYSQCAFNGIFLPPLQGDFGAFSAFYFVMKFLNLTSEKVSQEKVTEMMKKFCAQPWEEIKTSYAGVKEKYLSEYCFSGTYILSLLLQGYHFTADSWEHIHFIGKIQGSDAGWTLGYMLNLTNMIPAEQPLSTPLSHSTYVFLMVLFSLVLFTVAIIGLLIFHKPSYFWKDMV
Nature of the assay: flow cytometry, NIH/3T3-ENTPD1 cells. On the technique in general: In flow cytometry, cells or beads pass a laser one at a time.

Assay [2] has as its target T2, recombinant human ENTPD2 extracellular domain (residues 29-462) with C-terminal Avi-His6 tag (human, UniProt Q9Y5L3 29-462, biotinylated on the AviTag in the epitope binning assay). As to the kind of experiment: cell-based or functional assay.
Assay [3] has as its target T2, recombinant human ENTPD2 extracellular …. As to the kind of experiment: SPR Biacore, mAb captured, ECD analyte, 25C. As for the experimental part: (§1) Biacore Screening: Affinity was measured by determining the kinetic rate constants using surface plasmon resonance (SPR) on a Biacore T200 or T100 with the T200 sensitivity upgrade instrument (Biacore, GE Healthcare). Antibodies were captured on CM5 sensor chips (Biacore, GE Healthcare) prepared with a mouse anti-human IgG Fc antibody (ThermoFisher catalogue #05-4200) amine coupled to the surface. […] ENTPD2 analytes were allowed to associate for 180 s and dissociate for up to 1800 s depending on the off-rate of the antibody at a flow rate of 30 μL/min. The running buffer was PBS pH 7.2 (prepared from a Corning 10X stock, cat#46-013-CM)+0.05% Tween 20. […] The raw data were analyzed using Biacore T200 Evaluation Software version 1.0 and fit to a 1:1 binding model, with all parameters set to fit globally except for RI, which was set to fit locally.
(SPR reads the build-up and loss of mass on a sensor chip optically.)

Assay [4] concerns the target T3, recombinant cyno ENTPD2 extracellular domain (residues 29-462) with C-terminal Avi-His6 tag (cynomolgus macaque, UniProt Q9Y5L3 29-462 (human entry)).
T3 construct: also called cynomologus (cyno) ENTPD2 ECD
T3 chain (part 1 of 2): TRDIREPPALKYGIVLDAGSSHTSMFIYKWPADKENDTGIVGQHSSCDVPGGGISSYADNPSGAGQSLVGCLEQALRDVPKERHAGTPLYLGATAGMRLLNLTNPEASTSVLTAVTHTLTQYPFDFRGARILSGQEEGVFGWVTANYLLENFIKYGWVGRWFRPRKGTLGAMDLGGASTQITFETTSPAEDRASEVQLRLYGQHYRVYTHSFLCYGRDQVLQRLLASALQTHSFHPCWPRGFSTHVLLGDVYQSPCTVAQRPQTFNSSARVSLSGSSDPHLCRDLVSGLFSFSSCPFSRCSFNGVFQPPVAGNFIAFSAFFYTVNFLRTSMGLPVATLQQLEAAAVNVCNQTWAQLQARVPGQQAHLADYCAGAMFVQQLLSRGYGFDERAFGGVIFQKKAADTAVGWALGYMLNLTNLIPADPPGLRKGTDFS
T3 chain (part 2 of 2): HHHHHH
As to the kind of experiment: SPR Biacore, mAb captured, ECD analyte, 25C. How it is done: as §1

The target in assay [5] is human FcγRIIIa, V158 (high affinity variant) on engineered Jurkat cells (human, UniProt P08637 17-254). Nature of the assay: cell-based or functional assay.
Sequence of human FcγRIIIa, V158 (high affinity variant) on engineered Jurkat cells (P08637 other isoform, or with tags, fused parts or gaps mutant limits assumed): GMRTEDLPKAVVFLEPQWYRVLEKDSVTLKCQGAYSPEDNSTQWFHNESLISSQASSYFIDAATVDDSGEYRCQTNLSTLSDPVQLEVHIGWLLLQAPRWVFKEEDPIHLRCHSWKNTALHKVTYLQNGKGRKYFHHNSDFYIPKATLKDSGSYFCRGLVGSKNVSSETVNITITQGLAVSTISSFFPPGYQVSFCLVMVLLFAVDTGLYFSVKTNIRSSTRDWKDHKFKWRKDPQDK
Assay [6] addresses T4, recombinant monomeric mouse ENTPD2 extracellular domain (residues 29-462) with His6 tag (mouse, UniProt O55026 29-462).
T4 sequence: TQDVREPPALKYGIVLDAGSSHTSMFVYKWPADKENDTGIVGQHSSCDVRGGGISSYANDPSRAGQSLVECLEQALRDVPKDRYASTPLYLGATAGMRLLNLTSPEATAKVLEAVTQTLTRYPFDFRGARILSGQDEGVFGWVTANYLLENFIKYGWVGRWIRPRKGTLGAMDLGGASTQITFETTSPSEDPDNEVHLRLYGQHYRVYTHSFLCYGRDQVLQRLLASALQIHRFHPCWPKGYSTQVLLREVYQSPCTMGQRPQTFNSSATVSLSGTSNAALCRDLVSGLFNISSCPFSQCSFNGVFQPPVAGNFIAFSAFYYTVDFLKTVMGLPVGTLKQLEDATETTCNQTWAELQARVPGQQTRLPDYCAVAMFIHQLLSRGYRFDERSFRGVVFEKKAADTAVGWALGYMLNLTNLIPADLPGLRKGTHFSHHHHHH
As to the kind of experiment: SPR Biacore.

B1: ANTI-HUMAN ENTPD2 MAB1 (antibody, human IgG1, kappa)
heavy: not shown
light: DIQLTQSPSSLSASVGDRVTITCSASSSVSYIHWFQQKPGKAPKLLIYSTSNLASGVPSRFSGSGSGTFFTLTISSLQPEDFATYFCHQWSSYPWTFGQGTKVEIKRTVAAPSVFIFPPSDEQLKSGTASVVCLLNNFYPREAKVQWKVDNALQSGNSQESVTEQDSKDSTYSLSSTLTLSKADYEKHKVYACEVTHQGLSSPVTKSFNRGEC
notes: humanized from mAb17; human IgG1, kappa; also called anti-ENTPD2 mAb1
A word on the Kd: it is the concentration at which binding is half-saturated. One may read the koff as a measure of how fast the partners let go of each other. Usually kon stands for the rate constant with which the complex forms. As to B1, the binding result in assay [1] is “no binding (tested: 50 nM)”. Further, the “IC50, ENTPD2 Biochemical Assay at 1 uM ATP” value in assay [2] was determined as 0.52 nM. In assay [3], the dissociation constant (Kd) was 1.7 nM, the off-rate (koff) was found to be 0.00019 s⁻¹ and the kon came to 110000 M⁻¹ s⁻¹. In addition, in assay [4], the dissociation constant (Kd) worked out at 3.4 nM, the off-rate (koff) came out at 0.0012 s⁻¹ and the kon is 360000 M⁻¹ s⁻¹. Moreover, the “EC50, Jurkat FcγRIIIa V158 NFAT-luciferase reporter with RKO cells” value in assay [5] was 17.3 nM and 2.55 µg/mL. In addition, in assay [6], the binding result is on record as “no binding”.
